Data from publication PMC10167749, “The catalytic domains of Streptococcus mutans glucosyltransferases: a structural analysis” (Acta Crystallographica. Section F, Structural Biology …, 2023).

Molecular target: T1, catalytic domain of Streptococcus mutans GtfB (GtfB-CD) (Streptococcus mutans (UA159), UniProt P08987 191-1051)
T1 construct: Glucosyltransferase GtfB (GTF-I), Streptococcus mutans UA159, catalytic domain, residues 191-1051 (UniProt P08987); Cloned between NcoI and XhoI of pET-23d; also called GTF-I; source: E. coli BL21(DE3), pET-23d, purified (HisTrap FF, Mono Q, Superdex 200)
T1 sequence: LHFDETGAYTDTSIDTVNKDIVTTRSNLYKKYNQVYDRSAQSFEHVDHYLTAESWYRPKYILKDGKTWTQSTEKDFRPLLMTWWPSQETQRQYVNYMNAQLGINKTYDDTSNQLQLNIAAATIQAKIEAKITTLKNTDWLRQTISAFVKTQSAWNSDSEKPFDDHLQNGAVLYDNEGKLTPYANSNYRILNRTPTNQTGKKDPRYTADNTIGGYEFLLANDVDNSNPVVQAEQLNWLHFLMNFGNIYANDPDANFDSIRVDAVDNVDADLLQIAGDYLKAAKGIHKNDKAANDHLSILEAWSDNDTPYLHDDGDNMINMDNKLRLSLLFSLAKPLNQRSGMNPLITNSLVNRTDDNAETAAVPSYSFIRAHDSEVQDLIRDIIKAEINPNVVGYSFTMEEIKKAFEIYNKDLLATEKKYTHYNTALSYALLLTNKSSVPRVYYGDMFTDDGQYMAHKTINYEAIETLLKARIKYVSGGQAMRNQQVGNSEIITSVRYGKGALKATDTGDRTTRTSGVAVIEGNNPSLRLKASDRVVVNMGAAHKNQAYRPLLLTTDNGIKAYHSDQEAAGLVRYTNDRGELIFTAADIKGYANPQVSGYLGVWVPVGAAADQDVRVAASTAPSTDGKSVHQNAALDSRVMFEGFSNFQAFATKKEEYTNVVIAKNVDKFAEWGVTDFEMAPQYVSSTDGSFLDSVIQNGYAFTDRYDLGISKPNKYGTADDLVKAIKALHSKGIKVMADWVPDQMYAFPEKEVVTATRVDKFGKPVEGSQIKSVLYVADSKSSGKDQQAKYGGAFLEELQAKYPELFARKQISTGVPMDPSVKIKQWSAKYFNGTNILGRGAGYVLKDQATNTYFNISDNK
Assay: SPR; Biacore T200; iSRCR1 immobilised on a CM5 chip by amine coupling; analyte GtfB-CD 2-8 uM in 20 mM HEPES pH 7.4, 150 mM NaCl, 1 mM CaCl2 at 20 ul/min; each concentration in triplicate; kinetic fitting
Conditions: both partners purified

B1: recombinant scavenger receptor cysteine-rich domain 1 of Gp340 expressed in insect cells (iSRCR1) (domain or fragment)
chain: not shown
notes: Gp340 (salivary agglutinin), scavenger receptor cysteine-rich (SRCR) domain 1; source: recombinant, expressed in insect cells
Kd: 509 nM
